Consider 29 molecules from patent publication US20240124597A1 (Bristol-Myers Squibb, published 2024).

For the assay, the target named is T1, human-CD40-monomer protein (human, UniProt P25942 21-193, limits assumed).
T1 construct: Soluble monomer generated in house, used as SPR analyte; also called hCD40; hCD40-monomer
The assay is described as follows: SPR, Ab captured on protein A, hCD40 monomer 500 and 50 nM, 1:1 fit; supernatant. How it is done: Titer analysis was performed using Biolayer Interferometry (BLI) on an Octet RED instrument (Fortebio) by capturing antibodies from supernatant using protein A sensor tips and measuring capture response with respect to a standard curve obtained using a control antibody sample. SPR data were obtained by capturing antibodies on a protein A surface and testing the binding of 500 nM and 50 nM injections of human-CD40 analyte, using a BIAcore™ T200 instrument (GE Healthcare). The kinetic data for the two concentrations of hCD40-monomer were fit to a 1:1 Langmuir model, to yield estimates of the kinetic and affinity values for these interactions, and for comparison of the different molecules.
(SPR reads the build-up and loss of mass on a sensor chip optically.)

Where a chain is given by its changes, count along the chain named. Numbers in names are those of the source.

T1 sequence (P25942 21-193 limits assumed): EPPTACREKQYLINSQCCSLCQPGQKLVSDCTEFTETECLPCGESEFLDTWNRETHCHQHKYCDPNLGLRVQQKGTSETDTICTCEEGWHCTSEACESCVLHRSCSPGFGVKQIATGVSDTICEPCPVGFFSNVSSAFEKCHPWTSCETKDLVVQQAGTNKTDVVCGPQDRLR

B1: Y12XX-hz14 (antibody, human IgG1, kappa, V domains shown)
VH: QVQLVQSGAEVKKPGSSVKVSCKASGYAFTSYWMHWVRQAPGQGLEWMGQINPTTGRSQYNEKFKTRVTITADKSTSTAYMELSSLRSEDTAVYYCARWGLQPFAYWGQGTLVTVSS
VL: DIQMTQSPSSLSASVGDRVTITCKASQDVSTAVAWYQQKPGKAPKLLIYSASYRYTGVPSRFSGSGSGTDFTFTISSLQPEDIATYYCQQHYSTPWTFGGGTKVEIKR
notes: Humanized, IgG1-P238K; supernatant sample
Turning to B1, the Kd worked out at 5 nM, the koff was 0.00083 s⁻¹ and the on-rate (kon) was 170000 M⁻¹ s⁻¹.

B2: Y12XX-hz12 (antibody, human IgG1, kappa, V domains shown)
VH: B1 VH with T54S, T55Q
VL: B1 VL
notes: as for B1
In turn, B2 displayed a Kd of 8.3 nM, a koff of 0.0014 s⁻¹ and a kon of 170000 M⁻¹ s⁻¹.

B3: Y12XX-hz4 (antibody, human IgG1, kappa, V domains shown)
VH: QVQLVQSGAEVKKPGSSVKVSCKASGYAFTSYWMHWVRQAPGQGLEWMGYINPTTGYSAYNQKFKDKATLTADKSTSTAYMELSSLRSEDTAVYYCARWDPRPFAYWGQGTLVTVSS
VL: B1 VL
notes: as for B1
With B3, the Kd came to 4.7 nM, the koff was determined as 0.0022 s⁻¹ and the kon was 460000 M⁻¹ s⁻¹.

B4: Y12XX-hz39 (antibody, human IgG1, kappa, V domains shown)
VH: B1 VH with A40R, M48I, T54S, T55N
VL: EIVMTQSPATLSVSPGERATLSCKASQDVSTAVAWYQQKPGQAPRLLIYSASYRYTGIPARFSGSGSGTEFTLTISSLQSEDFAVYYCQQHYSTPWTFGGGTKVEIKR
notes: as for B1
Molecule B4 showed a Kd of 3.5 nM, a koff of 0.00084 s⁻¹ and a kon of 240000 M⁻¹ s⁻¹.

B5: Y12XX-hz31 (antibody, human IgG1, kappa, V domains shown)
VH: B1 VH with A40R, M48I, Q50F, R57Y, Q59E, E62Q, T66D, S84N, Q102P
VL: B4 VL
notes: as for B1
B5 yielded a Kd of 0.007 nM, a koff of 2.9e-07 s⁻¹ and a kon of 41000 M⁻¹ s⁻¹.

B6: Y12XX-hz36 (antibody, human IgG1, kappa, V domains shown)
VH: B3 VH with P101A
VL: B4 VL
notes: as for B1
The molecule B6 gave a Kd of 250 nM, a koff of 0.1 s⁻¹ and a kon of 390000 M⁻¹ s⁻¹.

B7: Y12XX-hz15 (antibody, human IgG1, kappa, V domains shown)
VH: B1 VH with Q50F, R57Y, Q59E, E62Q, T66D, Q102P
VL: B1 VL with S10F, F73L, I83F
notes: as for B1
Turning to B7, binding was characterised by a dissociation constant (Kd) of 8 nM, the koff was found to be 0.00013 s⁻¹ and the kon is 16000 M⁻¹ s⁻¹.

B8: Y12XX-hz32 (antibody, human IgG1, kappa, V domains shown)
VH: B3 VH
VL: B4 VL
notes: as for B1
Take B8: the affinity, expressed as Kd, was 10 nM; the koff came to 0.003 s⁻¹; the kon was found to be 290000 M⁻¹ s⁻¹.

B9: Y12XX-hz27 (antibody, human IgG1, kappa, V domains shown)
VH: B1 VH with T54S, T55N, G56A
VL: B1 VL with S10F, F73L, I83F
notes: as for B1
The molecule B9 displayed a Kd of 4.7 nM, a dissociation rate constant (koff) of 0.00088 s⁻¹ and a kon of 190000 M⁻¹ s⁻¹.

B10: Y12XX-hz9 (antibody, human IgG1, kappa, V domains shown)
VH: B1 VH with T54S, T55N
VL: B1 VL
notes: as for B1
As to B10, binding was put at a Kd of 4.6 nM, the koff was found to be 0.00089 s⁻¹ and the kon worked out at 200000 M⁻¹ s⁻¹.

B11: Y12XX-hz23 (antibody, human IgG1, kappa, V domains shown)
VH: B1 VH with T54S, T55N
VL: B1 VL with S10F, F73L, I83F
notes: as for B1
The molecule B11 gave a Kd of 3.2 nM, a koff of 0.00064 s⁻¹ and a kon of 200000 M⁻¹ s⁻¹.

B12: Y12XX-hz8 (antibody, human IgG1, kappa, V domains shown)
VH: B3 VH with P101A
VL: B1 VL
notes: as for B1
In turn, B12 returned a Kd of 210 nM, a koff of 0.15 s⁻¹ and a kon of 720000 M⁻¹ s⁻¹.

B13: Y12XX-hz29 (antibody, human IgG1, kappa, V domains shown)
VH: B1 VH with Q50F, R57Y, Q59E, E62Q, T66D, Q102P
VL: B4 VL
notes: as for B1
With B13, binding was put at a Kd of 0.069 nM, the koff was determined as 2.6e-06 s⁻¹ and the kon came out at 37000 M⁻¹ s⁻¹.

B14: Y12XX-hz11 (antibody, human IgG1, kappa, V domains shown)
VH: B1 VH with A40R, M48I, T54S, T55N
VL: B1 VL
notes: as for B1
In turn, B14 showed a Kd of 5 nM, a koff of 0.00088 s⁻¹ and a kon of 180000 M⁻¹ s⁻¹.

B15: Y12XX-hz37 (antibody, human IgG1, kappa, V domains shown)
VH: B1 VH with T54S, T55N
VL: B4 VL
notes: as for B1
B15 displayed a Kd of 3.3 nM, a koff of 0.00084 s⁻¹ and a kon of 260000 M⁻¹ s⁻¹.

B16: Y12XX-hz5 (antibody, human IgG1, kappa, V domains shown)
VH: B3 VH with A40R
VL: B1 VL
notes: as for B1
In turn, B16 returned a Kd of 7.2 nM, a koff of 0.0025 s⁻¹ and a kon of 350000 M⁻¹ s⁻¹.

B17: Y12XX-hz3 (antibody, human IgG1, kappa, V domains shown)
VH: B1 VH with A40R, M48I, Q50F, R57Y, Q59E, E62Q, T66D, S84N, Q102P
VL: B1 VL
notes: as for B1
The molecule B17 showed a Kd of 4.5 nM, a koff of 6.7e-05 s⁻¹ and a kon of 15000 M⁻¹ s⁻¹.

B18: Y12XX-hz33 (antibody, human IgG1, kappa, V domains shown)
VH: B3 VH with A40R
VL: B4 VL
notes: as for B1
In turn, B18 yielded a Kd of 11 nM, a koff of 0.0033 s⁻¹ and a kon of 290000 M⁻¹ s⁻¹.

B19: Y12XX-hz10 (antibody, human IgG1, kappa, V domains shown)
VH: B1 VH with A40R, T54S, T55N
VL: B1 VL
notes: as for B1
Turning to B19, the affinity, expressed as Kd, was 3.6 nM; the koff came to 0.00073 s⁻¹; the kon was 200000 M⁻¹ s⁻¹.

B20: Y12XX-hz26 (antibody, human IgG1, kappa, V domains shown)
VH: B1 VH with T54S, T55Q
VL: B1 VL with S10F, F73L, I83F
notes: as for B1
Consider B20, for which binding was put at a Kd of 7.5 nM, the koff came out at 0.0012 s⁻¹ and the kon amounted to 160000 M⁻¹ s⁻¹.

B21: Y12XX-hz25 (antibody, human IgG1, kappa, V domains shown)
VH: B1 VH with A40R, M48I, T54S, T55N
VL: B1 VL with S10F, F73L, I83F
notes: as for B1
Turning to B21, binding was put at a Kd of 3.4 nM, the koff is 0.00064 s⁻¹ and the on-rate constant (kon) came to 190000 M⁻¹ s⁻¹.

B22: Y12XX-hz24 (antibody, human IgG1, kappa, V domains shown)
VH: B1 VH with A40R, T54S, T55N
VL: B1 VL with S10F, F73L, I83F
notes: as for B1
B22 displayed a Kd of 4.4 nM, a koff of 0.00082 s⁻¹ and a kon of 190000 M⁻¹ s⁻¹.

B23: Y12XX-hz2 (antibody, human IgG1, kappa, V domains shown)
VH: B1 VH with A40R, Q50F, R57Y, Q59E, E62Q, T66D, Q102P
VL: B1 VL
notes: as for B1
As for B23, the Kd stood at 4.1 nM, the koff was 7.1e-05 s⁻¹ and the kon turned out to be 17000 M⁻¹ s⁻¹.

B24: Y12XX-hz17 (antibody, human IgG1, kappa, V domains shown)
VH: B1 VH with A40R, M48I, Q50F, R57Y, Q59E, E62Q, T66D, S84N, Q102P
VL: B1 VL with S10F, F73L, I83F
notes: as for B1
B24: the affinity, expressed as Kd, was 210 nM; the koff was 0.077 s⁻¹; the kon turned out to be 370000 M⁻¹ s⁻¹.

B25: Y12XX-hz13 (antibody, human IgG1, kappa, V domains shown)
VH: B1 VH with T54S, T55N, G56A
VL: B1 VL
notes: as for B1
B25 had a Kd of 3.9 nM, a koff of 0.00083 s⁻¹ and a kon of 210000 M⁻¹ s⁻¹.

B26: Y12XX-hz30 (antibody, human IgG1, kappa, V domains shown)
VH: B1 VH with A40R, Q50F, R57Y, Q59E, E62Q, T66D, Q102P
VL: B4 VL
notes: as for B1
B26 registered a Kd of 0.018 nM, a koff of 7.3e-07 s⁻¹ and an on-rate constant (kon) of 41000 M⁻¹ s⁻¹.

B27: Y12XX-hz38 (antibody, human IgG1, kappa, V domains shown)
VH: B1 VH with A40R, T54S, T55N
VL: B4 VL
notes: as for B1
B27 displayed a Kd of 3.6 nM, a koff of 0.00088 s⁻¹ and a kon of 250000 M⁻¹ s⁻¹.

B28: Y12XX-hz1 (antibody, human IgG1, kappa, V domains shown)
VH: B1 VH with Q50F, R57Y, Q59E, E62Q, T66D, Q102P
VL: B1 VL
notes: as for B1
For the molecule B28, binding was put at a Kd of 1.1 nM, the koff worked out at 1.6e-05 s⁻¹ and the kon is 15000 M⁻¹ s⁻¹.

B29: Y12XX-hz41 (antibody, human IgG1, kappa, V domains shown)
VH: B1 VH with T54S, T55N, G56A
VL: B4 VL
notes: as for B1
In the case of B29, the affinity, expressed as Kd, was 3.8 nM; the koff is 0.00094 s⁻¹; the kon is 250000 M⁻¹ s⁻¹.

In general, Kd refers to the constant that tells how readily two partners part at equilibrium. One may read the koff as the first-order rate constant of dissociation. By kon is commonly meant a measure of how fast the partners come together.
